# According to article PMC2756588:
# T1: Abp1, P15891
# T1 sequence (P15891 535-592, looked up): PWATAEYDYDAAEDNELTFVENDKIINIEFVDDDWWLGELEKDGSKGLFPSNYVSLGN
# T2: Bbc1, P47068
# T2 sequence (P47068 1-78, looked up): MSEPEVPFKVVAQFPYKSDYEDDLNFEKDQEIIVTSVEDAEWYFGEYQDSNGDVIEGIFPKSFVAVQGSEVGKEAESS
# T3: Boi1, P38041
# T3 sequence (P38041 1-86, looked up): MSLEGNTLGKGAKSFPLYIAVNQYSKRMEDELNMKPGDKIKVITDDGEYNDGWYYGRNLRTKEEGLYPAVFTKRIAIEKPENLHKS
# T4: Boi2, P39969
# T4 sequence (P39969 32-116, looked up): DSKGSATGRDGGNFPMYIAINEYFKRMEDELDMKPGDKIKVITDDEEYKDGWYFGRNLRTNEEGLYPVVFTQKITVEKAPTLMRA
# T5: Bud14, P27637
# T5 sequence (P27637 247-328, looked up): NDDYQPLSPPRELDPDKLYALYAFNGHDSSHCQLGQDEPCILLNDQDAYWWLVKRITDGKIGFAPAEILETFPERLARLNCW
# T6: Bzz1-1, P38822
# T6 sequence (P38822 478-572, looked up): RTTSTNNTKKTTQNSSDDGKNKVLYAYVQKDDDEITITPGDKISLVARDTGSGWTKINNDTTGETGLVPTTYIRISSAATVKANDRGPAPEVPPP
# T7: Bzz1-2, P38822
# T7 sequence (P38822 568-633, looked up): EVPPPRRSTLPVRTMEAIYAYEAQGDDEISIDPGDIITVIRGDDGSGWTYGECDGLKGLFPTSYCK
# T8: Cdc25, P04821
# T8 sequence (P04821 50-136, looked up): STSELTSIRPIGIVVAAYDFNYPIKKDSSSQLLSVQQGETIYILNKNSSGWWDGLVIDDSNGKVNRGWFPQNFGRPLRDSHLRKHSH
# T9: Cyk3, Q07533
# T9 sequence (Q07533 1-83, looked up): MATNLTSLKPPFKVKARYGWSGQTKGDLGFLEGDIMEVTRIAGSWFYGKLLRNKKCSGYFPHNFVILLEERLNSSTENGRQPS
# T10: Fus1, P11710
# T10 sequence (P11710 432-512, looked up): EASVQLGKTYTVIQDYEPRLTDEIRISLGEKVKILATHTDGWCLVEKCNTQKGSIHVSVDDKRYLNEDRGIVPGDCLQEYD
# T11: Hof1, Q05080
# T11 sequence (Q05080 590-669, looked up): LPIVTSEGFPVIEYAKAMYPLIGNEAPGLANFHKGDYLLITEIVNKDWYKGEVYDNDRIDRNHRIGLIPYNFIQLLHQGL
# T12: Hse1, P38753
# T12 sequence (P38753 208-285, looked up): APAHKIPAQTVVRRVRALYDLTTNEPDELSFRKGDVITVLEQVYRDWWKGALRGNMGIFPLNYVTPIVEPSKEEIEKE
# T13: Lsb1, P53281
# T13 sequence (P53281 45-122, looked up): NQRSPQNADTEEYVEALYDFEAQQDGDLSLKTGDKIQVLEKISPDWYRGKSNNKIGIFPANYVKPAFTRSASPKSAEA
# T14: Lsb3, P43603
# T14 sequence (P43603 385-451, looked up): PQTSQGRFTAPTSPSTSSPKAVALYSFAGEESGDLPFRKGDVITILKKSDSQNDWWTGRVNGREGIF
# T15: Lsb4, P32793
# T15 sequence (P32793 402-468, looked up): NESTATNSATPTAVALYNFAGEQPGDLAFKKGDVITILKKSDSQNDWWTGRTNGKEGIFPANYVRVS
# T16: Myo5, Q04439
# T16 sequence (Q04439 1072-1160, looked up): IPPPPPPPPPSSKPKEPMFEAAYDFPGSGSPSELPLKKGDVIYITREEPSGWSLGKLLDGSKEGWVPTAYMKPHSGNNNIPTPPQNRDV
# T17: Nbp2, Q12163
# T17 sequence (Q12163 103-180, looked up): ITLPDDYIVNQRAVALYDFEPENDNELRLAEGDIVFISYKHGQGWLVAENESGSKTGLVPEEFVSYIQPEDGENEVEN
# T18: Pex13, P80667
# T18 sequence (P80667 295-386, looked up): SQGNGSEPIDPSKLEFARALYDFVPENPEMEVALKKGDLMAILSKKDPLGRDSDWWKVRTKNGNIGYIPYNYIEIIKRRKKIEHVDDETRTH
# T19: Pin3, Q06449
# T19 sequence (Q06449 53-122, looked up): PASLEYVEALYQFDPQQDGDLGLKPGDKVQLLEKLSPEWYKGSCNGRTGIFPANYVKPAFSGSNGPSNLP
# T20: Sla1-2, P32790
# T20 sequence (P32790 60-140, looked up): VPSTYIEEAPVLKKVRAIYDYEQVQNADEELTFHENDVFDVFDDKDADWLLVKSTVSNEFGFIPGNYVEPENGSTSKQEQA
# T21: Sla1-3, P32790
# T21 sequence (P32790 344-424, looked up): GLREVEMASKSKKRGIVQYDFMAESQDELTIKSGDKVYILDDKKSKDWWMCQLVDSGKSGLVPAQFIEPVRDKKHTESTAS
# Experiments:
# Experiment in all cases: SPOT array
# Abp1, P15891 = biological target: T1, Abp1, P15891; details: median of control spots 935
# Bbc1, P47068 = biological target: T2, Bbc1, P47068; details: median of control spots 796
# Bem1-1, P29366 = details: median of control spots 4282
# Sequence of Bem1-1, P29366 (P29366 55-141): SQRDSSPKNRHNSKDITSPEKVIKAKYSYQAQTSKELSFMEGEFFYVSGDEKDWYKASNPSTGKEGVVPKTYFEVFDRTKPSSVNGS
# Bem1-2, P29366 = details: median of control spots 4347
# Sequence of Bem1-2, P29366 (P29366 139-227): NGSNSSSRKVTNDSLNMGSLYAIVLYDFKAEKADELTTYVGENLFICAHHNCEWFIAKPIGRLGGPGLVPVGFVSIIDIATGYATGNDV
# Boi1, P38041 = biological target: T3, Boi1, P38041; details: median of control spots 1162
# Boi2, P39969 = biological target: T4, Boi2, P39969; details: median of control spots 1161
# Bud14, P27637 = biological target: T5, Bud14, P27637; details: median of control spots 956
# Bzz1-1, P38822 = biological target: T6, Bzz1-1, P38822; details: median of control spots 4446
# Bzz1-2, P38822 = biological target: T7, Bzz1-2, P38822; details: median of control spots 4538
# Cdc25, P04821 = biological target: T8, Cdc25, P04821; details: median of control spots 969
# Cyk3, Q07533 = biological target: T9, Cyk3, Q07533; details: median of control spots 1451
# Fus1, P11710 = biological target: T10, Fus1, P11710; details: median of control spots 1200
# GST = details: median of control spots 978
# Hof1, Q05080 = biological target: T11, Hof1, Q05080; details: median of control spots 4086
# Hse1, P38753 = biological target: T12, Hse1, P38753; details: median of control spots 1727
# Lsb1, P53281 = biological target: T13, Lsb1, P53281; details: median of control spots 388
# Lsb3, P43603 = biological target: T14, Lsb3, P43603; details: median of control spots 406
# Lsb4, P32793 = biological target: T15, Lsb4, P32793; details: median of control spots 397
# Myo3, P36006 = details: median of control spots 468
# Myo5, Q04439 = biological target: T16, Myo5, Q04439; details: median of control spots 471
# Nbp2, Q12163 = biological target: T17, Nbp2, Q12163; details: median of control spots 357
# Pex13, P80667 = biological target: T18, Pex13, P80667; details: median of control spots 1341
# Pin3, Q06449 = biological target: T19, Pin3, Q06449; details: median of control spots 2171
# Rvs167, P39743 = details: median of control spots 2707
# Sequence of Rvs167, P39743 (P39743 419-482): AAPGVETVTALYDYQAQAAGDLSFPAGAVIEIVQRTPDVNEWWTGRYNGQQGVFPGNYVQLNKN
# Sho1, P40073 = details: median of control spots 1148
# Sequence of Sho1, P40073 (P40073 287-367): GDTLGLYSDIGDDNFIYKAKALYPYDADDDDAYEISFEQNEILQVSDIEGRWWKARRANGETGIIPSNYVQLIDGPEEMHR
# Sla1-2, P32790 = biological target: T20, Sla1-2, P32790; details: median of control spots 712
# Sla1-3, P32790 = biological target: T21, Sla1-3, P32790; details: median of control spots 5475
Binder,"SPOT intensity (Abp1, P15891)","SPOT intensity (Bbc1, P47068)","SPOT intensity (Bem1-1, P29366)","SPOT intensity (Bem1-2, P29366)","SPOT intensity (Boi1, P38041)","SPOT intensity (Boi2, P39969)","SPOT intensity (Bud14, P27637)","SPOT intensity (Bzz1-1, P38822)","SPOT intensity (Bzz1-2, P38822)","SPOT intensity (Cdc25, P04821)","SPOT intensity (Cyk3, Q07533)","SPOT intensity (Fus1, P11710)",SPOT intensity (GST),"SPOT intensity (Hof1, Q05080)","SPOT intensity (Hse1, P38753)","SPOT intensity (Lsb1, P53281)","SPOT intensity (Lsb3, P43603)","SPOT intensity (Lsb4, P32793)","SPOT intensity (Myo3, P36006)","SPOT intensity (Myo5, Q04439)",other results
RKNRAPPQRPRFNRD,298,535,0,104,12,7,18,11,91,40,12,26,4,8,23,670,68,75,61,3,"SPOT intensity (Nbp2, Q12163): 490; SPOT intensity (Pex13, P80667): 10; SPOT intensity (Pin3, Q06449): 9; SPOT intensity (Rvs167, P39743): 2; SPOT intensity (Sho1, P40073): 262; SPOT intensity (Sla1-2, P32790): 3; SPOT intensity (Sla1-3, P32790): 353"
RKNRAPPQRPRFNRE,235,362,0,65,8,3,15,8,77,30,4,14,4,6,25,390,30,49,51,5,"SPOT intensity (Nbp2, Q12163): 240; SPOT intensity (Pex13, P80667): 14; SPOT intensity (Pin3, Q06449): 12; SPOT intensity (Rvs167, P39743): 4; SPOT intensity (Sho1, P40073): 178; SPOT intensity (Sla1-2, P32790): 4; SPOT intensity (Sla1-3, P32790): 379"
IHTRRPSSTSQYLIR,27,6,9,43,2,0,4,0,7,10,1,233,0,11,22,0,0,2,1,1,"SPOT intensity (Nbp2, Q12163): 0; SPOT intensity (Pex13, P80667): 11; SPOT intensity (Pin3, Q06449): 25; SPOT intensity (Rvs167, P39743): 0; SPOT intensity (Sho1, P40073): 28; SPOT intensity (Sla1-2, P32790): 0; SPOT intensity (Sla1-3, P32790): 21"
LKVTPGRRAPTISKI,83,17,1,3,0,2,8,0,1,13,1,0,0,0,0,0,0,7,80,6,"SPOT intensity (Nbp2, Q12163): 85; SPOT intensity (Pex13, P80667): 3; SPOT intensity (Pin3, Q06449): 14; SPOT intensity (Rvs167, P39743): 0; SPOT intensity (Sho1, P40073): 72; SPOT intensity (Sla1-2, P32790): 0; SPOT intensity (Sla1-3, P32790): 6"
